Measurements as given in patent publication US20160003844A1 (MOGAM BIOTHECHNOLOGY INSTITUTE, published 2016).
Numbering of substitutions follows the chain as printed.

B1: HSA50 (other)
VH: EVQLVESGGGLVQPGGSLRLSCAASGFTFSSYAMGWVRQAPGKGPEVVSLISGSGGSTWYDDSVKGRFTISRDNSKNTLYLQMNSLRAEDTAVYYCASHQFTTTQWGQGTLVTVSS
notes: Human VH domain antibody (single heavy chain variable domain)
B2: HER3#62 (other)
VH: B1 VH with Q100P, F101P, T102R, T103V, T104D, Q105T
notes: as for B1
B3: HER3#748 (other)
VH: B1 VH with S30Y, Y32L, A33M, H99R, Q100H, F101P, T102P, T103G, T104L, Q105M
notes: as for B1
B4: HSA11 (other)
VH: B1 VH with Q100K, T102R, T103N, T104L, Q105K
notes: as for B1
B5: HSA9 (other)
VH: B1 VH with F101W, T102S, T103R, T104Q
notes: Human VH domain antibody (single heavy chain variable domain) selected from a CDR-engineered library; its FR2 matches the MG8-4 scaffold
B6: HER3#723 (other)
VH: B1 VH with S30Y, S31N, A33P, D90N, Q100P, F101V, T102S, T103L, T104L, Q105F
notes: Human VH domain antibody (single heavy chain variable domain), FR3 reads ...SLRAEN TAVYYC (N where the other clones have D)

Experiments:
[1] = molecular target: T1, human serum albumin (human, UniProt P02768 25-609); assay: method not stated; 'Affinity (nM)'
T1 construct: also called HAS; HSA
T1 sequence (P02768 25-609 limits assumed): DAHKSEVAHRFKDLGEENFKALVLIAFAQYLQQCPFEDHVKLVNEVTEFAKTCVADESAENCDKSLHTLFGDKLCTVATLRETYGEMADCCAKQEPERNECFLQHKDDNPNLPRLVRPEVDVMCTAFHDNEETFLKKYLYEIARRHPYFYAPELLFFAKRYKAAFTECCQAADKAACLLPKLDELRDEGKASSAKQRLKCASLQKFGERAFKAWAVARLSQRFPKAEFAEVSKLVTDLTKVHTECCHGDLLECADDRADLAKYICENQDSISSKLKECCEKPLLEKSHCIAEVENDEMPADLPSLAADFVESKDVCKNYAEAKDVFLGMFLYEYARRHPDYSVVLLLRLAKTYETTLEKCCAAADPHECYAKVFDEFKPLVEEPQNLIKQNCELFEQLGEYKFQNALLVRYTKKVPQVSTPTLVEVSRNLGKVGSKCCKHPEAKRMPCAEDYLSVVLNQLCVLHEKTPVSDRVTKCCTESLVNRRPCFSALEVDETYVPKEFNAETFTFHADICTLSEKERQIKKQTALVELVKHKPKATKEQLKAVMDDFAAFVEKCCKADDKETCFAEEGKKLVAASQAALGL

[2] = molecular target: T2, Human Epidermal Growth Factor Receptor-3 (human, UniProt P21860 20-643, limits assumed); assay: method not stated; 'Affinity (nM)'
T2 construct: also called HER3
T2 sequence (P21860 20-643 limits assumed): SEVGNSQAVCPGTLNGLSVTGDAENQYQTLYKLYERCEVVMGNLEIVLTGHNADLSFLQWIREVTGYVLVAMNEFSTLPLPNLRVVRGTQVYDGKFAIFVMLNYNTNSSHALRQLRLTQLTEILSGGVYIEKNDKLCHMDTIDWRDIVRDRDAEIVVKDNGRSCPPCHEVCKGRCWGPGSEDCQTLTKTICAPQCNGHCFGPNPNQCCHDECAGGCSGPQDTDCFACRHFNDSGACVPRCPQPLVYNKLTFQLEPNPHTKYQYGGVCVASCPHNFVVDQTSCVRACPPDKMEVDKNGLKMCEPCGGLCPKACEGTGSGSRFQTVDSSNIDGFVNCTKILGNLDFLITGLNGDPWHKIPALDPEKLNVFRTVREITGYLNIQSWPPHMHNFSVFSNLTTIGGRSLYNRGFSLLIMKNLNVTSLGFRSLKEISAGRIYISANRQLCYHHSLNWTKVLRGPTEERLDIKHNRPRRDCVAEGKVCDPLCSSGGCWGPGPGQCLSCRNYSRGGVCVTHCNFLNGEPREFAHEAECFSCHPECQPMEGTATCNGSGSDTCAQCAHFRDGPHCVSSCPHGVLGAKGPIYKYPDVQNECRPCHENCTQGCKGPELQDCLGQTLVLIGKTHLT

Binder	Kd [1] [nM]	Kd [2] [nM]
B1	7.8	–
B2	–	1.8
B3	–	20
B4	1.2	–
B5	1.7	–
B6	–	27.4
